In patent publication US20250034594A1, “RNA-GUIDED GENOME RECOMBINEERING AT KILOBASE SCALE” (THE BOARD OF TRUSTEES OF THE LELAND STANFORD JUNIOR …, priority 2021, published 2025):

B1: SSAP_127: SEQ ID NO: 296; Solibacillus sp. R5-41 (protein, listed as Solibacillus sp.)
chain: ATSNELKKQAQGQVTAKPTTPEGSLNALLKKMGPEIQRALPKHMDADRIARIALTAVRTTPKLLECDQLSFVAALMQSAQLGVEPNTGLGQAYLIPYGGKVQFQLGYKGLIDLAVRSGQYKAIYAHEVYADDEFSFAYGLHKDLVHVPSANPSGDPIGYYAVYHLKNGGYDFVYWTRERIDIHSKAFSQAVQKGWTSPWKTNYDAMAKKTVLKEVLKYAPKSIEMQKVVEADETIKNEVAPDMSNVIDVTDYSILEDPQDVTDAQ
B2: SSAP_212: SEQ ID NO: 381; Streptomyces sp. NRRL S-1824 (protein, listed as Streptomyces sp.)
chain: SEISNAIATRDQGPAAQIEAYRDEYAALVPSHINVDQWVRLAAGAIRGNEDLMEAARNDIGVFLRELKTAARLGLEPGTEQFYLTARKSKAHGYALIIKGIVGYQGIVELIYRAGAVSSVIVEAVRANDTFSYVPGRDDRPIHEIDWFGGDRGPLVGVYAYAVMKDGAVSKVVVMNHKRVMEIKARSDSKNSQYSPWNTDEESMWLKSAIRQLAKWVPTSAEYKSEQLRAHAEAIGELASVASAPLPPQPSVLDDVDPDDEGPIEGELVD
B3: SSAP_136: SEQ ID NO: 305; Corynebacterium striatum (protein, listed as Corynebacterium striatum)
chain: GTNLEQRMAANNAPAKQNRPVTLADQIRSMESQFQLAMPKGMEAQQLVRDALTCLRQTPKLAECTPQSVLGGLMTCSQLGLRPGVLGHAYLLPFWDRKQGGMVAQLVVGYRGLVELAHRSGQIQSLIARTVYENDHFDVDYGLDDKLVHKPCMNGPKGNPIAYYAVAKFTTGGHSFIVMSKDEMLAYRDEFAKAKNKQGEVFGPWADNFDAMAHKTCVRQLAKWMPSSTDLDRGIAADETVRVDLSESALDYPQHVDGEVVDSKPAEDEAA
B4: SSAP_116: SEQ ID NO: 285; Lachnoclostridium sp. An14 (protein, listed as Lachnoclostridium sp.)
chain: TDVKQELERKVGKQDSTAVRLTKNMSIPDMIKALEPEIRRALPAVLTPERFLRMALSAVNNTPKLAECTPMSFIAAMMNAAQLGLEPNTPLGQAYLIPYKNKNQLECQFQIGYKGIIDLAYRTGQMQMIQAHAVHEFDDFEYEYGLNPKLIHRPGDGNRGEITYFYGLFKLVNGGFGFEVMNREAMEAFAQQYSQSYGSQYSPWVKNFEDMAKKTVIKKALKYGPVKAEFQKAISMDETIKTEIAVDMTEVQNEESE
B5: SSAP_53: SEQ ID NO: 222 (protein)
chain: STALTTLTSQLSQRFKLDGGEELLTTLKQTAFKGQVTDAQMTALLIVANQFGLNPWTKEIYAFPDKNGGIVPVVGVDGWARIINEHPQFDGMDFEMDGEQSCTCVIYRKDRTRPIRITEYMAECKKTGGGPWQSHPRRMLRHKAMIQCARMAFGFGGISDEDDAERIREKDITPQAEVVPKALEPYPADKFEENFEQWKSLIESGRRSADDVIAKIKSRNTMTDEQETRLRACGGEEGKTYENA
B6: SSAP_2: SEQ ID NO: 173 (protein)
chain: ATNESLKNQLTTKKETGLGSAGNTIKGLMNSPAIKKRFEEVLKQRAPQYMSSIVNLVNSDINLKKCDQMSVVASCMVAATLDLPVDKNLGYAWVVPYGNKAQFQLGYKGYVQLALRTGQYKSINVIEIHEGELIDWNPLTEELKIDFSKKESDAVIGYAGYFELLNGFKKSTYWTKEQITKHKNKFSKSDFGWKKDFDAMARKTVLRNMLSKWGILSIEMQNAYTADQGIIKNEIMETGEVKENIEYIEADFESYEDNSIEEGGANE
B7: SSAP_200: SEQ ID NO: 369; Streptomyces (multispecies) (protein, listed as Streptomyces sp.)
chain: SQISNALATRDQGPAAQIEQYRDEYAALVPSHVNADQWVRLAVGAVRGDEKLMEAAQNDIGLFLREMKTAARLGLEPGTEQFYLTPRKSKPHGGRKVIKGIVGYQGIVELIYRAGAASTVIVEAVRENDTFRYVPGRDDRPVHEIDWFANDRGPLVGVYAYAVMKDGAVSKVVVLNRSRVMEFKAKSDSKHSEYSPWNTNEEAMWLKSAVRQLAKWVPTSAEYRRDQLLAHTETADSVVASVSTAPLPPQPSALDDADPDDDGPIDAELVD
B8: SSAP_195: SEQ ID NO: 364; Isoptericola dokdonensis (protein, listed as Isoptericola dokdonensis)
chain: TQDLATAIADQQPAQRRTAFDLVESMRGELHKALPEHASIDNFLRLALTELKMNPQLGNCSGESLLGALMTAARVGLEVGGPLGQFYLTPRRLKRDGWAVVPIVGYRGLITLARRAGVGQVNAVVVHEGDTFREGASSERGFFFDWEPAVERGKPVGALAAARLAGGDVQHRYLSLAEVHERRDRGGFKDGSNSPWATDYDAMVRKTALRALVPLLPQSTALSFAVQADEQVQRYDAGDIDIPALDETDTEDTK
B9: SSAP_281: SEQ ID NO: 450; Leucobacter luti (protein, listed as Leucobacter luti)
chain: SDLSQAAVAVKKSKTVEDYLTEYEPQFQRALGKSMDAAKFSQDALTAIKQTPQLGQADLQTLFGSLFLAAQLKLPVGGPLAQFHLTPRKRGDKLEVLPIIGFGGYVQLIMNTGLYSKVGAFLIYEKDYFDEGANSERGEFYDFKKSRGDRGPVVGVIAYVKLKGFDESQYVFLDADTIRSRHRPRYWEKTPWGSDEGEMFKKTGVRVLQKLLPKSVEAAPLALAADADQATVRKVDGIEDLTIQHDVVDAEVVPDGVPV
B10: SSAP_139: SEQ ID NO: 308; Butyrivibrio sp. FCS006 (protein, listed as Butyrivibrio sp.)
chain: PYLFGGQMKEQEIKNQLAAKAVETTNPKLSKNMNIADLIKAIEPEIKKALPTVITPERFTRIALSALNTTPKLAECSQMSFLAALMNAAQLGLEVNSPLGQAYLIPYNNKGKLECQFQIGYKGMLGLAYRNPEIQTIQAQVVYENDDFKYELGLDSKLYHKPSLSDRGKVRCYYALYKLRNGGYGFEVMSRRDVEEYAKRYSKVTDSLYSPWANNFDSMAKKTVIKQLLKYAPLRTDLEKAMSMDESIKTRVSVDMSEVENEETFDAEVEV

Columns and labels:
Format in all cases: cell-based
gene editing with Cas9 = test: Screen of 322 new SSAP proteins, gene editing activity with Cas9 (Table 5); design: Cas9 with SSAP activity: scale not given here
Procedure, shortened: (§1)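 Synthetic SSAP candidates, identified computationally, were tested in editing screens using both Cas9 and dCas9.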

gene editing with dCas9 = test: Screen of 322 new SSAP proteins, gene editing activity with dCas9 (Table 5); design: dCas9 with SSAP activity: scale not given here
Procedure, shortened: as §1

[1] = tested on: gene editing with Cas9 and dCas9; test: Screen of 322 new SSAP proteins, activity across all experiments (Cas9 and dCas9, Table 5); design: scale not given here
Procedure, shortened: as §1

Molecule | Cas9 with SSAP activity (gene editing with Cas9) | Cas9 with SSAP activity (normalized) (gene editing with Cas9) | dCas9 with SSAP activity (gene editing with dCas9) | dCas9 with SSAP activity (normalized) (gene editing with dCas9) | Activity across all experiments [1]
B1 | 0.427 | 0.447 | −6.524 | −1.210 | −3.048
B2 | 0.448 | 0.210 | −6.577 | −1.182 | −3.064
B3 | −0.594 | −0.262 | −6.395 | −0.952 | −3.495
B4 | −0.307 | −0.056 | −6.481 | – | −3.394
B5 | −1.644 | −1.327 | 0.088 | 0.036 | −0.778
B6 | −7.779 | −1.250 | −6.114 | −1.204 | −6.946
B7 | −2.468 | −0.973 | −6.514 | −1.107 | −4.491
B8 | −1.761 | −1.896 | −6.406 | −0.956 | −4.084
B9 | −1.121 | −0.672 | −6.188 | −0.973 | −3.655
B10 | −6.481 | – | −6.481 | – | −6.481
